Patent US20090318341A1
Like-named read-outs stand apart in the source and are kept apart here. Ends that are not written are not given here.

How the values were obtained:
Assay in all cases: cell-based or functional assay
[1] = biological target: human Kv1.3 voltage-gated potassium channel (human) (UniProt P22001)
[2] = biological target: human Kv1.3 channel (human) (UniProt P22001)
[3] = biological target: human Kv1.1 channel (human) (UniProt Q09470)
[4] = biological target: human Kv1.3 channel (human) (UniProt P22001); remark: listed apart in the source

Sequence of human Kv1.3 channel (human) (P22001 whole entry): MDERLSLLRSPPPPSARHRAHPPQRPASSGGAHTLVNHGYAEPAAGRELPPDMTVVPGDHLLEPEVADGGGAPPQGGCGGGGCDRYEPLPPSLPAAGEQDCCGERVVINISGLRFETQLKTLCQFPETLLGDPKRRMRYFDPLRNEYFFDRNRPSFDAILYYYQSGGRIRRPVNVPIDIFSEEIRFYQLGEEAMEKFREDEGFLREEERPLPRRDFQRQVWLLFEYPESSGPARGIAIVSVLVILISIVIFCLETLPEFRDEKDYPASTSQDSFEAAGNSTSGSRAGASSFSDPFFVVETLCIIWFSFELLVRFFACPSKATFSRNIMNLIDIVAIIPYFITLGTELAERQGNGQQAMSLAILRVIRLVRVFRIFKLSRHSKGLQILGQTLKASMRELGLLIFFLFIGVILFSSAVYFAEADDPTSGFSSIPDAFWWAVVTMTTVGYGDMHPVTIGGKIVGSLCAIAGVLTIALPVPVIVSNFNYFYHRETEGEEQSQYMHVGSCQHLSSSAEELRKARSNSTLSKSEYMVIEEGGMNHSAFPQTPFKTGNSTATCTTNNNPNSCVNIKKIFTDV
Sequence of human Kv1.3 voltage-gated potassium channel (human) (P22001 whole entry): as above
Sequence of human Kv1.1 channel (human) (Q09470 whole entry): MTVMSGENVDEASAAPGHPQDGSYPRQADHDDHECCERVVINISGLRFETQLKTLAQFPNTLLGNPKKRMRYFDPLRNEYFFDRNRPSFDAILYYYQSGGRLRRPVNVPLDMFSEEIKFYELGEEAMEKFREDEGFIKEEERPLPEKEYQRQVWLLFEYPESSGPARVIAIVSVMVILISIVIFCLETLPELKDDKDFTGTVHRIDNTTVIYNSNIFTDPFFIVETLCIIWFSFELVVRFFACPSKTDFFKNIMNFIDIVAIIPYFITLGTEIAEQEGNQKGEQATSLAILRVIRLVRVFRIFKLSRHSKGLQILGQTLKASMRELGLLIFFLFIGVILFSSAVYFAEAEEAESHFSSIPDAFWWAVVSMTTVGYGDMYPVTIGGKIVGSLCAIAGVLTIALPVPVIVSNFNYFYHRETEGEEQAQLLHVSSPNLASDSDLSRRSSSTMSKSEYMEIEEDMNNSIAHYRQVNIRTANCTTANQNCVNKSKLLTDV

20k PEG-OSK1[Ala29, 1Nal34] (peptide) was tested, and the WB/IFNg (IC50, nM), human whole blood assay [1] was 0.081 nM and the WB/IL-2 (IC50, nM), human whole blood assay [1] was 0.049 nM.

Molecule 20k PEG-ShK (peptide) has a WB/IFNg (IC50, nM), human whole blood assay [1] of 0.065 nM and a WB/IL-2 (IC50, nM), human whole blood assay [1] of 0.046 nM.

Fc-L5-ShK[2-35] (Fc fusion) was tested, and the IC50 of block of the outward potassium current, whole cell patch clamp [2] was 0.1 nM.

With “Fc-L10-ShK[2-35] (CHO-derived) (Fc fusion)” the IC50 of block of the outward potassium current, whole cell patch clamp [2] was 0.115 nM.

GGGGS-Osk1 (peptide) showed a WB/IFNg (IC50, nM), human whole blood assay [1] of 2.2 nM and a WB/IL-2 (IC50, nM), human whole blood assay [1] of 1.36 nM.

Work on “OSK1 (native Orthochirus scrobiculosus toxin peptide)” yielded a Kv1.3 Selectivity (=Kv1.1/Kv.3 IC50) [1] of 5 fold.

Work on OSK1 analogue E16K, K20D (peptide) yielded a WB/IFNg (IC50, nM), human whole blood assay [1] of 1.32 nM and a WB/IL-2 (IC50, nM), human whole blood assay [1] of 1.58 nM.

Synthetic OSK1 (peptide) showed a hKv1.1: IC50 [pM], block of K+ current, whole cell patch clamp [3] of 160 pM, a hKv1.3: IC50 [pM], block of K+ current, whole cell patch clamp [2] of 39 pM and a selectivity ratio hKv1.1/hKv1.3 (IC50 on hKv1.1 over IC50 on hKv1.3) [2] of 4 fold.

In the case of synthetic OSK1 toxin peptide, the IC50 of block of the outward potassium current, whole cell patch clamp [2] is reported as 0.039 nM.

Molecule SCIDTIPKSRCTAFQCKHSMKYRLSFCRKTCGTC (not fully specified; ends and bridges not checked) [ShK[2-35] synthetic peptide analog] has an IC50 of block of the outward potassium current, whole cell patch clamp [4] of 0.049 nM.
